B1: library; a variant is named by its letters at N, in order (parent)
chain: GCUGUCACCGGAAUACCAGCAUCGUCUUGAUGCCCUUGGAAGUCCGGUCUGAUGAGUCCNNNNNGGACGAAACAGC

The variants in series [1] derive from B1. As to the kind of experiment: FACS-Seq fitted mean relative fluorescence mCherry/BFP without ligand (log10 relative fluorescence); higher = higher reporter protein expression. Conditions: HEK293T, ligand present: no. Here is the method: (§1)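 Hammerhead (sTRSV) ribozyme switch libraries with a ligand aptamer grafted on stem I and a randomized N4-6 loop II, cloned into the 3' UTR of mCherry and transiently transfected into HEK293T cells; RNA-Seq 72 h post transfection with ligand added 1 h before transfection; RNA read count / plasmid DNA read count normalized to the non-cleaving sTRSVctl (x100), log10; sequences with >100 DNA reads. FACS-Seq: lentiviral library sorted into 6 bins after 48 h ligand, log-normal fit mean of mCherry/BFP scaled to controls. Printed sequences are partial switch sequences.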

In series [2] the parent is B1. In words: normalized RNA/DNA level with ligand (relative to sTRSVctl = 100) (log10 (% of sTRSVctl)); higher = less ribozyme self-cleavage, higher mRNA level. To be noted: ligand concentration (+) RNA-Seq: 5 mM, HEK293T, reporter: mCherry (pCS4076), ligand present: yes. Here is the method:
as §1

In series [3] the parent is B1. In words: normalized RNA/DNA level without ligand (relative to sTRSVctl = 100) (log10 (% of sTRSVctl)); higher = less ribozyme self-cleavage, higher mRNA level. Conditions: HEK293T, reporter: mCherry (pCS4076), ligand present: no. On the procedure: as §1
Variants of B1 are the subject of series [4]. In words: FACS-Seq fitted mean relative fluorescence mCherry/BFP with ligand (log10 relative fluorescence); ligand concentration (+) FACS-Seq: 1 mM; higher = higher reporter protein expression. To be noted: HEK293T, ligand present: yes. On the procedure: as §1

This note sets out measurements from the supplement of paper PMC6757056.

± gives the standard deviation of the averaged measurements.

For the variant GCUGUCACCGGAAUACCAGCAUCGUCUUGAUGCCCUUGGAAGUCCGGUCUGAUGAGUCCCAAGCGGACGAAACAGC [CAAGC], the results for the “FACS-Seq fitted mean (log10)” value in series [1] and in series [4] were 0.66 ± 0.031 and 0.543 ± 0.046, respectively. Also, in series [2], the “normalized RNA/DNA level with ligand (log10)” value worked out at 1.96 ± 0.064. In addition, the “normalized RNA/DNA level without ligand (log10)” value in series [3] stood at 1.99 ± 0.079.
In the case of GCUGUCACCGGAAUACCAGCAUCGUCUUGAUGCCCUUGGAAGUCCGGUCUGAUGAGUCCCAAGAGGACGAAACAGC [CAAGA], the “FACS-Seq fitted mean (log10)” value in series [1] worked out at 0.32 ± 0.031; in series [4], 0.3733 ± 0.0017. Also, the “normalized RNA/DNA level with ligand (log10)” value in series [2] is 1.97 ± 0.023. Also, in series [3], the “normalized RNA/DNA level without ligand (log10)” value amounted to 1.56 ± 0.15.
In the case of GCUGUCACCGGAAUACCAGCAUCGUCUUGAUGCCCUUGGAAGUCCGGUCUGAUGAGUCCGAACCGGACGAAACAGC [GAACC], the “FACS-Seq fitted mean (log10)” value in series [1] was found to be 0.828 ± 0.017; in series [4], 0.834 ± 0.11. Besides, the “normalized RNA/DNA level with ligand (log10)” value in series [2] turned out to be 2 ± 0.024. For the same variant, the “normalized RNA/DNA level without ligand (log10)” value in series [3] turned out to be 1.87 ± 0.13.
The corresponding values for GCUGUCACCGGAAUACCAGCAUCGUCUUGAUGCCCUUGGAAGUCCGGUCUGAUGAGUCCGAACUGGACGAAACAGC [GAACU] are 0.973 ± 0.11, 0.975 ± 0.024, 2.033 ± 0.0061 and 1.83 ± 0.12.
The corresponding values for GCUGUCACCGGAAUACCAGCAUCGUCUUGAUGCCCUUGGAAGUCCGGUCUGAUGAGUCCGAACGGGACGAAACAGC [GAACG] are 1.01 ± 0.081, 1.03 ± 0.028, 1.89 ± 0.14 and 1.793 ± 0.015.
Consider GCUGUCACCGGAAUACCAGCAUCGUCUUGAUGCCCUUGGAAGUCCGGUCUGAUGAGUCCGAAGAGGACGAAACAGC [GAAGA], for which the “FACS-Seq fitted mean (log10)” value in series [1] worked out at 0.532 ± 0.0054; in series [4], 0.761 ± 0.092. Moreover, in series [2], the “normalized RNA/DNA level with ligand (log10)” value came to 1.89 ± 0.051. Also, the “normalized RNA/DNA level without ligand (log10)” value in series [3] is 1.46 ± 0.36.
On to GCUGUCACCGGAAUACCAGCAUCGUCUUGAUGCCCUUGGAAGUCCGGUCUGAUGAGUCCAAAGAGGACGAAACAGC [AAAGA], for which the “FACS-Seq fitted mean (log10)” value in series [1] was -0.192 ± 0.043; in series [4], 0.259 ± 0.0043. Further, the “normalized RNA/DNA level with ligand (log10)” value in series [2] turned out to be 1.92 ± 0.08. Also, the “normalized RNA/DNA level without ligand (log10)” value in series [3] was 1.32 ± 0.06.
As to GCUGUCACCGGAAUACCAGCAUCGUCUUGAUGCCCUUGGAAGUCCGGUCUGAUGAGUCCAAAGCGGACGAAACAGC [AAAGC], the “FACS-Seq fitted mean (log10)” value in series [1] was 1.03 ± 0.054; in series [4], 1.04 ± 0.14. Moreover, the “normalized RNA/DNA level with ligand (log10)” value in series [2] was found to be 2.03 ± 0.041. The “normalized RNA/DNA level without ligand (log10)” value in series [3] came out at 1.79 ± 0.043.
For GCUGUCACCGGAAUACCAGCAUCGUCUUGAUGCCCUUGGAAGUCCGGUCUGAUGAGUCCCAACCGGACGAAACAGC [CAACC], the figures for the “FACS-Seq fitted mean (log10)” value in series [1] and in series [4] were 1.06 ± 0.065 and 1.02 ± 0.03, respectively. Moreover, in series [2], the “normalized RNA/DNA level with ligand (log10)” value is 1.91 ± 0.059. Also, the “normalized RNA/DNA level without ligand (log10)” value in series [3] worked out at 1.994 ± 0.0033.
On to GCUGUCACCGGAAUACCAGCAUCGUCUUGAUGCCCUUGGAAGUCCGGUCUGAUGAGUCCCAACUGGACGAAACAGC [CAACU], for which the “FACS-Seq fitted mean (log10)” value in series [1] was 0.64 ± 0.013; in series [4] it was 0.815 ± 0.097. For the same variant, the “normalized RNA/DNA level with ligand (log10)” value in series [2] was found to be 1.98 ± 0.048. In addition, the “normalized RNA/DNA level without ligand (log10)” value in series [3] came out at 1.73 ± 0.17.
In the case of GCUGUCACCGGAAUACCAGCAUCGUCUUGAUGCCCUUGGAAGUCCGGUCUGAUGAGUCCUAAGAGGACGAAACAGC [UAAGA], the entries for the “FACS-Seq fitted mean (log10)” value in series [1] and in series [4] were -0.11 ± 0.071 and 0.22 ± 0.072, respectively. The “normalized RNA/DNA level with ligand (log10)” value in series [2] was found to be 1.9752 ± 0.00034. In series [3], the “normalized RNA/DNA level without ligand (log10)” value stood at 1.48 ± 0.16.
The like results for GCUGUCACCGGAAUACCAGCAUCGUCUUGAUGCCCUUGGAAGUCCGGUCUGAUGAGUCCAAACUGGACGAAACAGC [AAACU] were, in that order, 0.552 ± 0.079, 0.604 ± 0.0015, 1.97 ± 0.093 and 1.79 ± 0.033.
With GCUGUCACCGGAAUACCAGCAUCGUCUUGAUGCCCUUGGAAGUCCGGUCUGAUGAGUCCAAACGGGACGAAACAGC [AAACG], the “FACS-Seq fitted mean (log10)” value in series [1] was found to be 0.558 ± 0.061; in series [4] it was 0.652 ± 0.062. Also, the “normalized RNA/DNA level with ligand (log10)” value in series [2] turned out to be 2 ± 0.03. The “normalized RNA/DNA level without ligand (log10)” value in series [3] came out at 1.84 ± 0.12.
The corresponding values for GCUGUCACCGGAAUACCAGCAUCGUCUUGAUGCCCUUGGAAGUCCGGUCUGAUGAGUCCAAACAGGACGAAACAGC [AAACA] are -0.0142 ± 0.16, 0.172 ± 0.072, 1.9113 ± 0.00046 and 1.72 ± 0.14.
For GCUGUCACCGGAAUACCAGCAUCGUCUUGAUGCCCUUGGAAGUCCGGUCUGAUGAGUCCAAACCGGACGAAACAGC [AAACC], the “FACS-Seq fitted mean (log10)” value in series [1] was 0.153 ± 0.14; in series [4] it was 0.18 ± 0.0037. For the same variant, the “normalized RNA/DNA level with ligand (log10)” value in series [2] was found to be 1.96 ± 0.097. Moreover, the “normalized RNA/DNA level without ligand (log10)” value in series [3] worked out at 1.91 ± 0.14.
Regarding GCUGUCACCGGAAUACCAGCAUCGUCUUGAUGCCCUUGGAAGUCCGGUCUGAUGAGUCCUAACCGGACGAAACAGC [UAACC], the “FACS-Seq fitted mean (log10)” value worked out at 0.589 ± 0.058 in series [1] and 0.702 ± 0.061 in series [4]. The “normalized RNA/DNA level with ligand (log10)” value in series [2] worked out at 1.92 ± 0.025. The “normalized RNA/DNA level without ligand (log10)” value in series [3] was 1.92 ± 0.04.
On to GCUGUCACCGGAAUACCAGCAUCGUCUUGAUGCCCUUGGAAGUCCGGUCUGAUGAGUCCUAACGGGACGAAACAGC [UAACG], for which the “FACS-Seq fitted mean (log10)” value in series [1] came to 0.784 ± 0.07; in series [4] it was 0.711 ± 0.018. Moreover, the “normalized RNA/DNA level with ligand (log10)” value in series [2] was determined as 1.99 ± 0.04. For the same variant, the “normalized RNA/DNA level without ligand (log10)” value in series [3] came to 1.87 ± 0.18.
The like results for GCUGUCACCGGAAUACCAGCAUCGUCUUGAUGCCCUUGGAAGUCCGGUCUGAUGAGUCCUAACUGGACGAAACAGC [UAACU] were, in that order, 0.803 ± 0.036, 0.716 ± 0.1, 2 ± 0.14 and 1.89 ± 0.02.
